± gives the standard deviation of the averaged measurements.
B1: library; a variant is named by its letters at N, in order (parent)
chain: GCUGUCACCGGUGUAUUACCCUAGUGGUCGACCGGUCUGAUGAGUCUNNNNNNAGACGAAACAGC

Experiments:
hypoxanthine [1] = variants of: B1; assay: FACS-Seq fitted mean relative fluorescence mCherry/BFP without ligand (log10 relative fluorescence); ligand: hypoxanthine (xanthine aptamer); higher = higher reporter protein expression; details: HEK293T, ligand present: no
In short: (§1)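 HEK293T libraries were lentivirally transduced with an mCherry reporter carrying the ribozyme switch and an EF1α-BFP marker, enriched, and incubated for 48 h with or without ligand before sorting into 6 bins by mCherry/BFP. Genomic DNA from each bin was PCR-amplified, barcoded and sequenced on MiSeq. Fluorescence is the fitted normal mean of the bin counts. The fit used log10(mCherry/BFP), and means were scaled to five spiked-in control ribozymes.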

hypoxanthine [2] = variants of: B1; assay: normalized RNA/DNA level with ligand (relative to sTRSVctl = 100) (log10 (% of sTRSVctl)); ligand: hypoxanthine (xanthine aptamer); higher = less ribozyme self-cleavage, higher mRNA level; details: ligand concentration (+) RNA-Seq: 5 mM, HEK293T, reporter: mCherry (pCS4076), ligand present: yes
In short: (§2)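 RNA level was computed as RNA reads over DNA reads divided by a spiked-in non-cleaving sequence or by the top sequences, then scaled and log-transformed. Scaling was ×100 with log10, the top group was 25 sequences, and the threshold was ≥100 DNA reads. The reads came from HEK293T cells transfected at 4 µg per 6-well well with ribozyme switch library plasmids (mCherry, or eGFP in some ligand experiments). Total RNA was extracted with EDTA 72 h after transfection, with any ligand added 1 h before it.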

hypoxanthine [3] = variants of: B1; assay: normalized RNA/DNA level without ligand (relative to sTRSVctl = 100) (log10 (% of sTRSVctl)); ligand: hypoxanthine (xanthine aptamer); higher = less ribozyme self-cleavage, higher mRNA level; details: HEK293T, reporter: mCherry (pCS4076), ligand present: no
In short: as §2

hypoxanthine [4] = variants of: B1; assay: FACS-Seq fitted mean relative fluorescence mCherry/BFP with ligand (log10 relative fluorescence); ligand: hypoxanthine (xanthine aptamer); ligand concentration (+) FACS-Seq: 5 mM; higher = higher reporter protein expression; details: HEK293T, ligand present: yes
In short: as §1

| Variant | FACS-Seq fitted mean (log10) (hypoxanthine [1]) | normalized RNA/DNA level with ligand (log10) (hypoxanthine [2]) | normalized RNA/DNA level without ligand (log10) (hypoxanthine [3]) | FACS-Seq fitted mean (log10) (hypoxanthine [4]) |
| --- | --- | --- | --- | --- |
| GCUGUCACCGGUGUAUUACCCUAGUGGUCGACCGGUCUGAUGAGUCUUAUAGUAGACGAAACAGC [UAUAGU] | 0.0206 ± 0.046 | 1.86 ± 0.029 | 1.57 ± 0.063 | 0.131 ± 0.037 |
| GCUGUCACCGGUGUAUUACCCUAGUGGUCGACCGGUCUGAUGAGUCUAAUCAUAGACGAAACAGC [AAUCAU] | 0.507 ± 0.019 | 1.9 ± 0.027 | 1.8365 ± 0.00062 | 0.523 ± 0.057 |
| GCUGUCACCGGUGUAUUACCCUAGUGGUCGACCGGUCUGAUGAGUCUAAUCACAGACGAAACAGC [AAUCAC] | -0.698 ± 0.014 | 1.95 ± 0.04 | 1.849 ± 0.0051 | -0.545 ± 0.04 |
| GCUGUCACCGGUGUAUUACCCUAGUGGUCGACCGGUCUGAUGAGUCUAAUAGGAGACGAAACAGC [AAUAGG] | 0.109 ± 0.012 | 1.75 ± 0.046 | 1.28 ± 0.1 | 0.509 ± 0.025 |
| GCUGUCACCGGUGUAUUACCCUAGUGGUCGACCGGUCUGAUGAGUCUAAUAGUAGACGAAACAGC [AAUAGU] | 0.36 ± 0.029 | 1.87 ± 0.027 | 1.61 ± 0.016 | 0.505 ± 0.041 |
| GCUGUCACCGGUGUAUUACCCUAGUGGUCGACCGGUCUGAUGAGUCUAAUAGCAGACGAAACAGC [AAUAGC] | 0.38 ± 0.038 | 1.924 ± 0.0031 | 1.734 ± 0.0066 | 0.681 ± 0.17 |
| GCUGUCACCGGUGUAUUACCCUAGUGGUCGACCGGUCUGAUGAGUCUGAUAUAAGACGAAACAGC [GAUAUA] | 0.804 ± 0.057 | 1.91 ± 0.034 | 1.8 ± 0.061 | 0.741 ± 0.0099 |
| GCUGUCACCGGUGUAUUACCCUAGUGGUCGACCGGUCUGAUGAGUCUGAUAUGAGACGAAACAGC [GAUAUG] | 0.0367 ± 0.045 | 1.85 ± 0.029 | 1.39 ± 0.017 | 0.215 ± 0.097 |
| GCUGUCACCGGUGUAUUACCCUAGUGGUCGACCGGUCUGAUGAGUCUGAUAGAAGACGAAACAGC [GAUAGA] | 0.3713 ± 0.0031 | 1.89 ± 0.052 | 1.592 ± 0.01 | 0.547 ± 0.025 |
| GCUGUCACCGGUGUAUUACCCUAGUGGUCGACCGGUCUGAUGAGUCUGAUAGGAGACGAAACAGC [GAUAGG] | -0.0874 ± 0.036 | 1.737 ± 0.017 | 1.27 ± 0.04 | 0.506 ± 0.068 |
| GCUGUCACCGGUGUAUUACCCUAGUGGUCGACCGGUCUGAUGAGUCUAAUAUGAGACGAAACAGC [AAUAUG] | 0.333 ± 0.056 | 1.84 ± 0.04 | 1.462 ± 0.014 | 0.53 ± 0.0062 |
| GCUGUCACCGGUGUAUUACCCUAGUGGUCGACCGGUCUGAUGAGUCUAAUAUAAGACGAAACAGC [AAUAUA] | 0.619 ± 0.062 | 1.89 ± 0.024 | 1.78 ± 0.034 | 0.599 ± 0.07 |
| GCUGUCACCGGUGUAUUACCCUAGUGGUCGACCGGUCUGAUGAGUCUGAUCCGAGACGAAACAGC [GAUCCG] | 0.0801 ± 0.012 | 1.94 ± 0.048 | 1.77 ± 0.051 | 0.31 ± 0.0077 |
| GCUGUCACCGGUGUAUUACCCUAGUGGUCGACCGGUCUGAUGAGUCUAAUCCGAGACGAAACAGC [AAUCCG] | 0.134 ± 0.0095 | 1.86 ± 0.073 | 1.423 ± 0.0043 | 0.584 ± 0.0084 |
| GCUGUCACCGGUGUAUUACCCUAGUGGUCGACCGGUCUGAUGAGUCUGAUCAUAGACGAAACAGC [GAUCAU] | 0.447 ± 0.026 | 1.91 ± 0.033 | 1.919 ± 0.018 | 0.521 ± 0.023 |
| GCUGUCACCGGUGUAUUACCCUAGUGGUCGACCGGUCUGAUGAGUCUGAUCACAGACGAAACAGC [GAUCAC] | 0.374 ± 0.035 | 1.99 ± 0.068 | 1.87 ± 0.025 | 0.417 ± 0.071 |
| GCUGUCACCGGUGUAUUACCCUAGUGGUCGACCGGUCUGAUGAGUCUGAUCAAAGACGAAACAGC [GAUCAA] | 0.497 ± 0.07 | 1.9 ± 0.03 | 1.833 ± 0.0048 | 0.708 ± 0.034 |
| GCUGUCACCGGUGUAUUACCCUAGUGGUCGACCGGUCUGAUGAGUCUUAUCACAGACGAAACAGC [UAUCAC] | 0.6449 ± 0.00099 | 1.909 ± 0.012 | 1.86 ± 0.04 | 0.584 ± 0.023 |
| GCUGUCACCGGUGUAUUACCCUAGUGGUCGACCGGUCUGAUGAGUCUUAUCAAAGACGAAACAGC [UAUCAA] | 0.456 ± 0.02 | 1.91 ± 0.029 | 1.81 ± 0.021 | 0.414 ± 0.055 |
| GCUGUCACCGGUGUAUUACCCUAGUGGUCGACCGGUCUGAUGAGUCUUAUAUGAGACGAAACAGC [UAUAUG] | 0.385 ± 0.02 | 1.88 ± 0.049 | 1.723 ± 0.013 | 0.531 ± 0.025 |
| GCUGUCACCGGUGUAUUACCCUAGUGGUCGACCGGUCUGAUGAGUCUUAUAUAAGACGAAACAGC [UAUAUA] | 0.814 ± 0.011 | 1.95 ± 0.04 | 1.836 ± 0.018 | 0.838 ± 0.068 |

Reference: the supplement of paper PMC6757056
